Experimental data reported in PMC5814804 (Nucleic Acids Research, 2018).

B1: Thermotoga maritima TsaD (natural protein, UniProt Q9WXZ2 1-327, looked up)
chain: MRVLGIETSCDETAVAVLDDGKNVVVNFTVSQIEVHQKFGGVVPEVAARHHLKNLPILLKKAFEKVPPETVDVVAATYGPGLIGALLVGLSAAKGLAISLEKPFVGVNHVEAHVQAVFLANPDLKPPLVVLMVSGGHTQLMKVDEDYSMEVLGETLDDSAGEAFDKVARLLGLGYPGGPVIDRVAKKGDPEKYSFPRPMLDDDSYNFSFAGLKTSVLYFLQREKGYKVEDVAASFQKAVVDILVEKTFRLARNLGIRKIAFVGGVAANSMLREEVRKRAERWNYEVFFPPLELCTDNALMVAKAGYEKAKRGMFSPLSLNADPNLNV

Tests used:
[1] = biological target: the molecule itself; assay: SEC
[2] = biological target: B1; assay: native gel or EMSA

| binding result [2] | Binder | stoichiometry N [1] |
| --- | --- | --- |
| binds | Thermotoga maritima TsaB (natural protein, UniProt Q9WZX7 1-206, looked up) MNVLALDTSQRIRIGLRKGEDLFEISYTGEKKHAEILPVVVKKLLDELDLKVKDLDVVGVGIGPGGLTGLRVGIATVVGLVSPYDIPVAPLNSFEMTAKSCPADGVVLVARRARKGYHYCAVYLKDKGLNPLKEPSVVSDEELEEITKEFSPKIVLKDDLLISPAVLVEESERLFREKKTIHYYEIEPLYLQKSIAELNWEKKKRG | 2 |
|  | B1 | 2 |
